In paper PMC11424739:

Test system: CC(C)CC1CC(=O)NC(=O)C1
Test: purified protein
Format: biochemical, Paraburkholderia phytofirmans
Details: 50 mmol L^-1 Tris-HCl pH 8.0, 40 °C, IBI 0.10-2.0 mg mL^-1

Row | Substance | Km | kcat | kcat/Km
1 | BpIH (Paraburkholderia phytofirmans PsJN) | 9.02 ± 0.51 mM | 0.00967 ± 0.0075 s⁻¹ | 1.07 M⁻¹ s⁻¹
2 | BpIH (Paraburkholderia phytofirmans PsJN; S226L) | 9.28 ± 1.09 mM | 0.0517 ± 0.00617 s⁻¹ | 5.47 M⁻¹ s⁻¹
3 | BpIH (Paraburkholderia phytofirmans PsJN; H133N/S226L/Y37F) | 8.48 ± 1.03 mM | 0.052 ± 0.00367 s⁻¹ | 5.67 M⁻¹ s⁻¹
4 | BpIH (Paraburkholderia phytofirmans PsJN; H133N/S226I/Y37F) | 7.31 ± 0.73 mM | 0.0573 ± 0.005 s⁻¹ | 7.82 M⁻¹ s⁻¹
